Test results from the supplement of paper PMC10126150.
± gives the standard deviation of the averaged measurements.

Tested on: ATP
Assay: switch fluorescence ratio, 500 uM ATP over buffer (Cy3 cluster intensity, sum of 5 cycles each) (fold (ratio)); higher = stronger signal-on switching upon ATP binding; sequences stand for … in TCGTCGGCAGCGTCAGATGTGTATAAGAGACAGTTTTTTTTTTTTTTTTTTTTTTTTT…TC
Settings: aptamer strand: ATP DNA aptamer (quencher-CACCTGGGGGAGTATTGCGGAGGAAGG + anchor), 100 nM annealed; ATP concentration: 500 uM
Method in brief: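 Per cluster, summed Cy3 intensity from the target cycles was divided by that from the buffer cycles to give the fluorescence ratio, then averaged per switch-domain sequence. Clusters outside 100-1000 RFU were excluded. The Cy3-labelled switching-strand clusters, on a modified Illumina MiSeq flow-cell, were annealed to 100 nM quencher-labelled ATP aptamer and imaged in selection buffer, then after 15 min with 500 uM ATP at 22 °C, for five cycles with NaOH stripping and re-annealing between them.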
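Note: ATP exposure 15 min at 22 °C before imaging.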

Point of comparison: TGGTTCCGGG, switch fluorescence ratio 1.01 ± 0.02. Against it:
- TGGTGTATCC — within error, 0.985 ± 0.019
- TGGTGTCAAT — within error, 1 ± 0.017
- TGGTGTCAGT — within error, 0.977 ± 0.022
- TGGTGTCGGG — within error, 0.998 ± 0.013
- TGGTGTCGTG — within error, 0.999 ± 0.034
- TGGTGTTTTT — within error, 0.992 ± 0.027
- TGGTTACCAT — within error, 1.02 ± 0.057
- TGGTTAGCG — within error, 1.04 ± 0.024
- TGGTTAGGGA — the same, 1.01 ± 0.026
- TGGTTAGGTT — lower, 0.966 ± 0.013
- TGGTTAGTTG — within error, 0.994 ± 0.013
- TGGTTCAGGG — within error, 0.997 ± 0.04
- TGGTTCAGGT — within error, 1.02 ± 0.022
- TGGTTCAGTG — within error, 0.993 ± 0.048
- TGGTTCCCTT — within error, 1.02 ± 0.07
- TGGTTGAAT — the same, 1.01 ± 0.049
- TGGTTGAGTT — within error, 0.973 ± 0.021
- TGGTTGTAAG — within error, 1.03 ± 0.024
- TGGTTGTGAG — within error, 1 ± 0.0065
- TGGTTGTTGC — within error, 0.998 ± 0.043
- TGGTTGTTGT — lower, 0.96 ± 0.014
- TGGTTTAACG — within error, 0.99243 ± 0.00051
- TGGTTTCCGT — within error, 0.991 ± 0.027
- TGGTTTGAGG — within error, 0.989 ± 0.035
- TGGTTTTAAG — within error, 0.98 ± 0.024
- TGGTTTTACG — within error, 1.019 ± 0.01
- TGGTTTTATT — the same, 1.01 ± 0.043
- TGGTTTTGGA — within error, 0.976 ± 0.056
- TGGTTTTTGT — within error, 1.1 ± 0.2
- TGGTTTTTTG — within error, 0.996 ± 0.017
- TGTAAACGGG — within error, 1.09 ± 0.12
- TGTAAATAAG — within error, 0.991 ± 0.043
- TGTAACCCAT — within error, 1.02 ± 0.061
- TGTAACGAAA — the same, 1.008 ± 0.0027
- TGTAACGGGG — within error, 1.03 ± 0.032
- TGTAAGACCC — within error, 1.06 ± 0.033
- TGTAAGAGTG — within error, 0.983 ± 0.021
- TGTAATACGT — higher, 1.17 ± 0.019
- TGTAATCCGG — within error, 0.986 ± 0.012
- TGTAATCTAC — within error, 1.06 ± 0.057
- TGTAATGGTT — within error, 1.004 ± 0.01
- TGTACGGGGA — within error, 0.995 ± 0.03
- TGTAGAGGTG — higher, 1.09 ± 0.022
- TGTAGCAGCT — higher, 1.12 ± 0.045
- TGTAGCTTGT — within error, 1.09 ± 0.075
- TGTAGGGGAA — within error, 0.996 ± 0.011
- TGTAGGGGGC — within error, 1.27 ± 0.39
- TGTAGGGTTC — within error, 1.12 ± 0.19
- TGTAGTAGCG — within error, 0.9901 ± 0.0064
- TGTAGTTGTG — within error, 1.02 ± 0.061
- TGTAGTTTAG — the same, 1.01 ± 0.032
- TGTAGTTTGT — within error, 0.973 ± 0.034
- TGTATGGTTT — within error, 0.971 ± 0.048
- TGTATGTCGG — lower, 0.959 ± 0.03
- TGTATTCAAT — within error, 0.986 ± 0.013
- TGTATTCAGG — the same, 1.01 ± 0.056
- TGTATTTTT — lower, 0.98586 ± 0.00097
- TGTCACTGTG — within error, 0.979 ± 0.049
- TGTCAGGGCC — within error, 1.04 ± 0.053
- TGTCAGTGCT — within error, 1.015 ± 0.0066
- TGTCAGTTTC — within error, 0.987 ± 0.018
- TGTCCAGCTC — within error, 1.49 ± 0.65
- TGTCCCTCTT — within error, 1.02 ± 0.053
- TGTCCGGGGG — within error, 0.994 ± 0.029
- TGTCGGGATT — within error, 1.03 ± 0.053
- TGTCGGGGGT — higher, 1.22 ± 0.18
- TGTCGTTATT — lower, 0.9546 ± 0.0018
- TGTCTATTTT — within error, 1.019 ± 0.0033
- TGTCTGGGGG — the same, 1.01 ± 0.025
- TGTCTTTATT — within error, 0.988 ± 0.016
- TGTGAAGTTT — lower, 0.9595 ± 0.0076
- TGTGAGAGGG — within error, 1 ± 0.019
- TGTGAGAGTT — within error, 0.9826 ± 0.0098
- TGTGAGCAGG — higher, 1.15 ± 0.044
- TGTGAGCCTG — within error, 0.98 ± 0.092
- TGTGAGCTGT — the same, 1.0077 ± 0.00016
- TGTGAGGCGG — within error, 1.04 ± 0.11
- TGTGAGGGGT — within error, 0.994 ± 0.033
- TGTGAGGTGT — within error, 1.02 ± 0.062
- TGTGAGTAGG — within error, 1.02 ± 0.017
- TGTGAGTGTG — within error, 0.983 ± 0.015
- TGTGATAGAG — within error, 0.989 ± 0.029
- TGTGATGAGT — within error, 0.992 ± 0.024
- TGTGATGGTT — the same, 1.005 ± 0.0013
- TGTGATTTAA — within error, 1.002 ± 0.0028
- TGTGATTTAT — within error, 1.0046 ± 0.00072
- TGTGATTTGA — lower, 0.9763 ± 0.0026
- TGTGCAATGT — higher, 1.3 ± 0.029
- TGTGCCCCTT — within error, 0.991 ± 0.042
- TGTGCTCGGA — within error, 1.04 ± 0.1
- TGTGCTGGGT — within error, 1.02 ± 0.024
- TGTGGAAGGT — within error, 0.9999 ± 0.0078
- TGTGGCAAGA — within error, 1.14 ± 0.14
- TGTGGCGGGA — within error, 1.06 ± 0.13
- TGTGGCTCTG — lower, 0.9571 ± 0.0087
- TGTGGGATAC — higher, 1.2 ± 0.015
- TGTGGGCGC — the same, 1.01 ± 0.098
- TGTGGGGACC — within error, 1.05 ± 0.05
- TGTGGGGAGG — within error, 0.969 ± 0.027
